Patent US6471960B1, “Methods for the prevention or treatment of alzheimer's disease” (Rutgers, the State University, priority 1994, dated 2002)
Blank lines part the entries; values can stand above or below the compound they belong to.

How the values were obtained:
tPA [1] = target: T1, tPA (Homo sapiens, UniProt P00750); assay: Binding of active site 125I-labeled tPA to amyloid fibrils or fibrin; details: for effect on tPA binding to amyloid fibrils: ε-aminocaproic acid at 0.1 M (100 mM); for t-PA binding relative to wt β1-28 and fibrin controls: fibrils of Charged→Gln β(1-28) variants
T1 sequence (P00750 36-562): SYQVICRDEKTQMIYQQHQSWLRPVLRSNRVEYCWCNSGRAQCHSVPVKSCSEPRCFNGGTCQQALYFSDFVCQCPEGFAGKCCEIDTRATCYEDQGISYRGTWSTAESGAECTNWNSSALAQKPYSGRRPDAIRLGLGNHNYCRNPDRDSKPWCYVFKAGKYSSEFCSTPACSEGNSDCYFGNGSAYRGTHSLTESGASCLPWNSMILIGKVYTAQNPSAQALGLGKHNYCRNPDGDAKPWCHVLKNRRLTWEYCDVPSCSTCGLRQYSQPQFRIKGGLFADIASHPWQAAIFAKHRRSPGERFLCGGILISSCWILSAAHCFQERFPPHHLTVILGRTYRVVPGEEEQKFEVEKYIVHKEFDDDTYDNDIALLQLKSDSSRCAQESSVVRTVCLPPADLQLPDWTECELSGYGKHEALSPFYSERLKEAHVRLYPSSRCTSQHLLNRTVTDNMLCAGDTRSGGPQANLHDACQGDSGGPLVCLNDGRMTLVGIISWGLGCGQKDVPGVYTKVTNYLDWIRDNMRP
Description: In this study, D-Tyr-Pro-Arg-chloromethyl ketone (Bachem Bioscience) was radioiodinated by the chloramine-T method and subsequently used to irreversibly bind to the active site of tPA. (Keyt, et al, Anal. Biochem. 206:73-83 (1992)). 1 mCi of I^125 was mixed with YPRck in 1 M Tris-HCL, 0.01% Tween 20 at pH 7.5. To initiate iodination 10 μl of 1 mg/ml Chloramine-T was added. After 1 minute, 20 μl of 1 mg/ml sodium metabisulfite was added to reduce the Chloramine-T and iodide. 15 μl of 1 mg/ml tPA was then added, and the mixture was incubated at room temperature for 1 hour to allow the YPRck to bind to the tPA. Radiolabeled tPA was purified from free iodine and unreacted YPRck using a PD-10 column preequilibrated with PBS and 0.003% Tween 20. The labeled protein was stored at −20° C.
(§1) Synthetic Amyloid Fibril Formation—β1-28 (Chiron Mimotopes Peptide Systems) and β1-40 (Bachem Bioscience) peptides were dissolved in water. Aggregation solution conditions were 1×PBS, 1 mg/ml β-peptide and the pH was adjusted to the theoretical pI of the peptides (5.6 for β1-28 and 4.9 for β1-40). Solutions were kept at room temperature.
Binding of Active Site-labeled tPA to Amyloid Fibrils or to Fibrin—tPA binding was determined by a modification of the method of Higgins and Vehar, Biochem. 26:7786-7791 (1987)).
To confirm that the labeled tPA's protein binding surface was not altered by the radioiodination, it was bound to fibrin by substituting fibrinogen for the fibrils. Fibrin clot formation was initiated by adding 0.4 units/ml (final human thrombin. The remainder of the assay proceeded as above.
Ihibition of kringle-dependent labeled tPA Binding to Amyloid Fibrils and Fibrin Using ε-aminocaproic acid to the binding solutions were set up on the same manner as previously noted except that ε-aminocaproic acid at 0.1 M was included in the conditions.
Previous studies of the interaction of human tissue plasminogen activator with the amyloid β peptide employed a functional plasminogen activation assay (Kingston, I. B. et al., Nature Medicine 1:138-142 (1995); Castro, M. J. M., et al., Analyt. Biochem. 226:225-231 (1995)). However, to understand this interaction more fully, a sensitive and quantitative assay for measuring direct amyloid β peptide binding by t-PA and other fibrin(ogen)-binding proteins (e. g., plasmin) was employed in the present invention. For this purposed a specific probe molecule, D-Tyr-Pro-Arg chloromethyl ketone (YPACK), was radioiodinated with ^125I then reacted with t-PA, plasmin, and thrombin to effect covalent active site modification of their respective protease domains (Keyt, B. A. et al., Analyt. Biochem. 206:73-83 (1992)). Binding of ^125I-YPACK-modified t-PA to fibrin and amyloid β peptide fibrils was carried out by a modification of the method of Higgins, D. L. et al. (Fibrinolysis 6:161-166 (1992)). Incubations of t-PA (0.5 nM) with fibrin or fibrils (100 μg/ml) were in 1X phosphate buffered saline, 0.01% Tween-80, 0.5% bovine serum albumin, pH 7.4, for 60 min. at 37° C. In some instances, ε-amino caproic add (ε-ACA) was also present at a concentration of 100 mM.

[2] = Fibril formation (electron microscopy, light scattering); type: physicochemical; details: pH adjusted to theoretical pI
Description: Fibril formation was accomplished by taking the peptides up in water. 10×calcium and magnesium free phosphate buffered saline (“PBS”) was added to give a 1×PBS solution (2.7 mM KCl, 1.2 mM KH2PO4, 138 mM NaCl, 8.1 mM Na2HPO4). Fibril formation was obtained by adjusting the pH to the theoretical pI of the β-amyloid peptides. The theoretical pI of β-amyloid peptide 1-42 was 4.9; the theoretical pI of β-amyloid peptide 1-28 was 5.6; the theoretical pI of β-amyloid peptide 1-28 (Dutch) was 6.2. The final concentration of peptide was 1 mg/ml. […] Fibrils were observed immediately or within no more than two days at room temperature. Small aliquots of suspended aggregated peptides were absorbed onto carbon-coated copper grids and stained with 2% (w/v) uranyl acetate. Samples were examined in a JEOL 1200EX electron microscope.
as §1, with “temperature. Fibril formation was confirmed by light scattering and transmission electron microscopy.” for “temperature.”
It had been possible that some of the charged→glutamine peptide variants might not form fibrils. […]

[3] = target: tissue plasminogen activator (Homo sapiens, UniProt P00750); assay: Plasminogen activation stimulation assay (H-D-valyl-L-leucyl-L-lysine-p-nitroanilide), Example 3; type: biochemical; details: stimulators at 56 μg/ml
Sequence of tissue plasminogen activator (P00750 23-562 limits assumed): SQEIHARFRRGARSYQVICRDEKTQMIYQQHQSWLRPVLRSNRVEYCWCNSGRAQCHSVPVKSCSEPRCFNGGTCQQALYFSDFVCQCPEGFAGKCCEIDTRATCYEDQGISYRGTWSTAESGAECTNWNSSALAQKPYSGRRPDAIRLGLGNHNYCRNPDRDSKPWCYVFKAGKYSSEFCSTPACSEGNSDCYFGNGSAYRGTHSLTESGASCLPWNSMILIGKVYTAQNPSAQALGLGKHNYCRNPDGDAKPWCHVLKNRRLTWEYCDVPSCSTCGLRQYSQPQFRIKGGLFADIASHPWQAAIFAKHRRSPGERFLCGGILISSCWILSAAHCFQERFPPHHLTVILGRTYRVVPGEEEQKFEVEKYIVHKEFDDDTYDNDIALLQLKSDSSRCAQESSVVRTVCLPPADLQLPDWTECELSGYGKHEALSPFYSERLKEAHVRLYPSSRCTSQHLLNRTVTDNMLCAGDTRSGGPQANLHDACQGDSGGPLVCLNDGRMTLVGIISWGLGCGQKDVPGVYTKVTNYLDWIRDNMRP
Description: To further investigate this relationship, the ability of amyloid β peptide fibrils to stimulate tissue plasminogen activator was studied. For this purpose, plasminogen activation assays were carried out as described by Bennett, W. F. et al., J. Biol. Chem. 266:5191-5201 (1991)). Plasmin generation was monitored by measuring the absorbance change at 405 nm produced by hydrolysis of the substrate, H-D-valyl-L-leucyl-L-lysine-p-nitroanilide. Stimulators tested were present in the assay at a concentration of 56 μg/ml. The apparent first-order rate constants of plasminogen activation t-PA were measured for various stimulators. Rate constants were determined as described by Castro, M. J. M., et al., Analyt. Biochem. 226:225-231 (1995)) using fresh or aged amyloid β peptide fibrils or control proteins.
The twelve β1-28 peptide analogs were used for plasminogen activation and direct binding assays with the fibrinogen-binding proteins t-PA, plasmin, and thrombin, specifically labeled at their respective protease domain active sites as described above. For five of the peptide variants R5Q, […], D23Q, and K28Q, t-PA binding was reduced relative to its binding to both wt β1-28 and fibrin controls, implying that the t-PA binding “footprint” on the fibrils was rather large. […]

tPA [4] = target: T1, tPA; assay: Plasminogen activation by t-PA, initial velocities under steady state conditions (S-2251, Lineweaver-Burk); type: biochemical; parameters: purchased Genentech, Inc. Activase; details: unaggregated peptides

Compound: NCCCCCC(=O)O [ε-aminocaproic acid, reference compound]
- effect on tPA binding to amyloid fibrils (tPA [1]): capable of competing out amyloid binding
- effect on tPA binding to amyloid fibrils (tPA [1]; listed as ε-amino caproic acid): partially blocked

Compound: Corticotropin Releasing Factor: control peptide, 41 amino acids
- fibril formation [2]: did not form fibrils

Compound: DAEFRHDSGYEVHHQKLVFFAEQVGSNK [D23Q]
- t-PA binding relative to wt β1-28 and fibrin controls (tPA [1]): reduced

Compound: DAEFRHDSGYEVHHQQLVFFAEDVGSNK [K16Q]
- stimulation of t-PA-mediated plasminogen activation [3]: enhanced stimulation

Compound: Fibrinogen
- Km (tPA [4]; Km of t-PA for plasminogen with the stimulator present): 3.3 µM
- kcat (tPA [4]; kcat of t-PA with the stimulator present): 0.051 s⁻¹

Compound: Growth Hormone Releasing Factor: control peptide, 29 amino acids
- fibril formation [2]: did not form fibrils

Continued, in another order:

- t-PA binding relative to wt β1-28 and fibrin controls (tPA [1]): reduced
Compound: DAEFQHDSGYEVHHQKLVFFAEDVGSNK [R5Q]

- t-PA binding relative to wt β1-28 and fibrin controls (tPA [1]): reduced
Compound: DAEFRHDSGYEVHHQKLVFFAEDVGSNQ [K28Q]
- stimulation of t-PA-mediated plasminogen activation [3]: profoundly decreased levels of stimulation

- Kd of t-PA binding to fibrils (tPA [1]; 125I-YPACK-modified t-PA): sub-nanomolar range
- % tPA Bound (tPA [1]; about 0.5 nM labeled tPA, 0.1 mg/ml fibrils or fibrin, 1 hour): 62%
- tPA binding to amyloid fibrils (qualitative) (tPA [1]; radiolabeled tPA, tPA:fibrin binding as control): binds
Compound: β 1-40 Amyloid Fibrils: synthetic β1-40 amyloid peptide (Bachem Bioscience), aggregated to fibrils
